In publication PMC8406658:

Columns and labels:
[1] = target: Fc-tagged ACE2 recombinant protein (human) (UniProt Q9BYF1); test: BLI
[2] = target: ACE2 (angiotensin-converting enzyme II receptor), full length, expressed on U937 cells (human) (UniProt Q9BYF1); test: adhesion frequency assay (micropipette)

## SARS2-RBD^WT (receptor-binding domain of the SARS-CoV-2 spike, residues 333-527) (domain or fragment; other documents disagree on this pair)
[1]
  Kd: 66.7 nM
  koff: 0.0121 s⁻¹
  kon: 181000 M⁻¹ s⁻¹
[2]
  koff: 0.0569 s⁻¹
